Assay results from the Human Domainome abundance scans (Beltran et al. 2025).

B1: Zinc finger homeobox protein 4, residues 2562 to 2617; numbered along this chain, Q86UP3 (parent)
chain: RLRTTITPEQLEILYEKYLLDSNPTRKMLDHIAREVGLKKRVVQVWFQNTRARERK

Variants of: B1
Assay: abundance fitness (aPCA) (normalised: wild type 0, dead -1); higher = more abundant; growth selection in yeast, the domain comes from the species named
Details: Homo sapiens

Abundance fitness: each site, then its substitutions
V43: N -0.829; F -0.861; E -0.925; G -0.89; K -0.965; R -0.974; I -0.147; L -0.306; T -0.553; D -0.778; S -0.723; C -0.505; A -0.462; P -0.862; W -0.78
R41: C 0.068; D 0.001; G 0.264; I -0.038; A 0.257; V 0.013; L 0.115; T 0.213; S 0.306; E 0.517; P 0.246; H 0.163; N 0.248; Y 0.037; Q 0.476; W -0.102; F -0.044
K40: S 0.218; M 0.243; H -0.218; P 0.162; E 0.361; C 0.108; W -0.002; V 0.264; L 0.264; Y 0.518; D -0.097; R 0.057; A 0.163; T 0.199; F 0.15; I 0.143; G 0.103
V36: K -0.726; L -0.121; A -0.103; I -0.398; W -0.638; C -0.223; D -0.27; H -0.418; N -0.415; M -0.134; Y -0.586; R -1.03; S 0.019; E -0.671; P -0.649; G -0.812; F -0.623
K39: W -0.779; L 0.072; S 0.278; R -0.126; V -0.01; M -0.405; A 0.234; Q 0.032; T 0.284; G 0.117; H -0.072; D 0.11; P 0.196; F -0.862; Y 0.406; N -0.168; C 0.142; I -0.784
E35: W -0.597; Q -0.283; G -0.258; T -0.254; H -0.302; C -0.393; S -0.158; F -0.564; N -0.358; D -0.278; V -0.306; A -0.235; M -0.279; L -0.25; I -0.163; R -0.654; Y -0.493
R34: Y 0.245
G37: L -0.71; D -0.065; Q -0.051; P -0.812; V -0.643; H -0.471; A -0.258; N 0.107; Y -0.962; K -0.169; I -0.828; S -0.359; C -0.006; R -0.369; M -0.465; W -1.1
V45: C -0.352; D 0.192; A -0.243
L38: E -0.488; R -0.818; K -0.254; P -0.787; D -0.718; A -0.508; G -0.915; I -0.025; M -0.132; Q -0.755; W -0.884; C -0.301; T -0.933; S -0.846
V42: S -0.348; R -0.413; C -0.179; H -0.079; A -0.197; D 0.23; G -0.533; E 0.273; T -0.187; K -0.302; Q -0.038; M -0.103; L -0.126; Y -0.598
Q44: K -0.035; G -0.031; I -0.28; W -0.045; R -0.191; Y 0.202; F -0.416; M -0.132; C 0.246; L -0.128; V -0.156; N -0.131; S -0.248; D 0.322; A -0.011; H -0.101; T -0.053; E 0.298
